The target in the assay is polysialate O-acetyltransferase NeuO, protein variant with four N-terminal RLKTQDS heptads (Escherichia coli K1 (prophage CUS-3)). Put plainly: crystal structure; apo-enzyme, space group P2_1, three monomers in the asymmetric unit, 1.7 Å; sitting drop at 20°C, 0.1 M Tris pH 7.2, 0.45 M glycine, 0.2 M NH4NO3, 7% PEG4000.

In the case of “polysialate O-acetyltransferase NeuO, protein variant with four N-terminal RLKTQDS heptads (enzyme)”, the stoichiometry N was 3.

The record behind these values is publication PMC3046976.
